For one substance, IC50 of neutralisation of Env-pseudotyped virus AC10.29.SG3 (clade B), TZM-bl target cells, luciferase, IC50 of neutralisation of Env-pseudotyped virus ZM53.12.SG3 (clade C), TZM-bl target cells, luciferase and IFN-γ intracellular cytokine staining of human CD4 T cells co-cultured with HIV-infected CEM cells and 0.5 μg ml^−1 protein, relative to unstimulated CD4 T cells (1.4-fold in the absence of HIV-1) results are on record in article PMC4633990.

The target in assay [1] is HIV-1 Env of strain AC10.29 (clade B) on pseudovirus AC10.29.SG3 (HIV-1 AC10.29 (clade B)).
Assay [2] addresses HIV-1 Env of strain ZM53.12 (clade C) on pseudovirus ZM53.12.SG3 (HIV-1 ZM53.12 (clade C)).
The target in assay [3] is HIV-1 Env on HIV-1 IIIb-infected CEM-NKr-CCR5 cells (CEM-IIIb) (HIV-1 IIIb) (UniProt P04578).

On to “VRC07-αCD3 bispecific immunomodulatory protein (bispecific antibody)”, for which, in assay [1], the IC50 of neutralisation of Env-pseudotyped virus AC10.29.SG3 (clade B), TZM-bl target cells, luciferase was 0.346 µg/mL. This substance came in with an IC50 of neutralisation of Env-pseudotyped virus ZM53.12.SG3 (clade C), TZM-bl target cells, luciferase in assay [2] of 0.24 µg/mL. Besides, in assay [3], the IFN-γ intracellular cytokine staining of human CD4 T cells co-cultured with HIV-infected CEM cells and 0.5 μg ml^−1 protein, relative to unstimulated CD4 T cells (1.4-fold in the absence of HIV-1) was found to be 9 fold.
